From patent US20210054047A1, “NOVEL ANTICANCER FUSION PROTEIN AND USE THEREOF” (KOREA INSTITUTE OF SCIENCE AND TECHNOLOGY, priority 2018, published 2021)

Columns and labels:
DR5 [1] = experiment: Western blot time course of DR5 levels in HT29; type: cell-based, human; conditions: HT29, 4, 12 and 24 hours
PARP = experiment: Western blot of HT29 lysates: PARP; type: cell-based, human; conditions: HT29, 24 hours
Protocol: (§1) After incubating HT29 cells with 50 nM DOX-TTPNs, DOX-FTNs, free DOX, or buffer for 24 hours, cells were lysed with radioimmunoprecipitation assay (RIPA) buffer (Cell Signaling Technology) and the concentration of proteins was measured using a DC protein assay kit (Bio-Rad). Equal amounts of proteins (30 μg) were resolved by SDS-PAGE and transferred to nitrocellulose membranes. After blocking with 5% skim milk in Tris-buffered saline containing 0.1% Tween-20 (TBST), membranes were incubated first with anti-Cl-PARP, anti-Cl-caspase-6, anti-cFLIP, anti-Bcl-xL, anti-XIAP, anti-Cl-caspase-3, or anti-GAPDH primary antibody (Cell Signaling Technology), and then with anti-mouse or anti-rabbit secondary antibodies (Sigma-Aldrich), as appropriate. Immunoreactive proteins were visualized using enhanced chemiluminescence (ECL) chemical reagents (Bio-Rad) and ChemiDoc (Bio-Rad), and were analyzed using ImageJ software.

[2] = mice (Chatterjee et al.); cited from earlier work
HT29 tumor [3] = experiment: Antitumor efficacy, HT29 xenograft; type: in vivo, mouse; conditions: i.v. five times every 2 days, DOX-TTPNs 30 mg/kg, DOX 0.4 mg/kg, DOX-FTNs 15 mg/kg, empty TTPNs 30 mg/kg
HT29 cells [4] = experiment: Cell viability, CCK-8 assay, HT29; type: cell-based, human; conditions: HT29, 250 nM (DOX 3.5 μg/ml), 24 hours
Protocol: (§2) HepG2, HT29, or MCF7 cells (1.5×10^4) were cultured in a 96-well plate for 1 day, after which DOX-TTPNs, DOX-FTNs, free DOX, empty TTPNs, or buffer was added to each well. After 24 hours, cell viability was measured using a CCK-8 assay (Dojindo Molecular Technologies) according to the manufacturer's instructions. For analysis of early apoptosis, HT29 cells in 6-18 well culture plate were treated with DOX-TTPNs, free DOX, empty TTPNs, or buffer for 24 hours. Thereafter, cells were incubated with Alexa Fluor 488-conjugated annexin V (Invitrogen) 20 for 15 minutes, then analyzed using an Accuri™ C6 flow cytometer (BD Biosciences) and FlowJo 21 v10 software.

HT29 tumor [5] = experiment: TUNEL analysis of HT29 tumor tissue; type: in vivo, mouse; conditions: HT29 tumor tissue at the end of the study
[6] = system: cleaved form of caspase-3; experiment: Western blot of HT29 lysates: cleaved caspase-3; type: cell-based, human; conditions: HT29, 50 nM, 24 hours
Protocol: as §1

HT29 cells [7] = experiment: Annexin V early apoptosis flow cytometry, HT29; type: cell-based, human; conditions: HT29, low concentrations, 24 hours
Protocol: as §2

XIAP = experiment: Western blot of HT29 lysates: XIAP; type: cell-based, human; conditions: HT29, 24 hours
Protocol: as §1

DR5 [8] = molecular target: T1, DR5 (Homo sapiens, UniProt O14763); experiment: SPR binding to immobilized DR5-Fc
T1 construct: purchased R&D systems 631-T2-100
Protocol: (§3) Binding experiments of TTPN and mTRAIL to TRAIL receptors DR4 and DR5 were analyzed at 25° C. using a surface plasmon resonance apparatus (SR7500 DC, Reichert Inc., NY, USA). DR4 and DR5-fc chimeric proteins (R&D systems 347-DR-100, 631-T2-100) were immobilized on the surface of the Planar Protein A sensor chip (Reichert, 13206069) and the receptors were coated at a level of 300 to 500 resonance units. SPR kinetic titrations were performed by adding 250 μl of TTPN and mTRAIL with different concentrations in the range of 1.56 to 400 nM and 0.1 to 25.6 μM, respectively, increasing by four times. Each analyte was run at 50 μL/min using running and sample buffer (0.5 M Tris-HCl (pH 7.4), 150 mM NaCl, 0.005% Tween 20), and binding of the ligand to the receptor was performed and monitored in real time. For titration sensorgrams, a simple 1:1 Langmuir interaction model (A+B↔AB) was applied using the data analysis program Scrubber 2.0 (BioLogic Software, Australia, and KaleidaGraph Software, Australia) and CLAMP software.
(§4) The affinity KD was determined from the formula of KD=kd/ka. Results are based on representative sensorgrams obtained from saturation binding reactions averaged over at least three independent runs of SPR measurements (FIG. 31).

[9] = molecular target: TRAIL R1 (death receptor 4, DR4) on the surface of tumor cells (human, UniProt O00220 24-468); experiment: cell-based or functional assay
[10] = molecular target: TRAIL R2 (death receptor 5, DR5) on the surface of tumor cells (human, UniProt O14763 56-440); experiment: cell-based or functional assay
HepG2 tumor [11] = experiment: Antitumor efficacy, HepG2 xenograft; type: in vivo, mouse; conditions: i.v. every 2 days, TTPN 23 mg/kg, mTRAIL 12 mg/kg
Description: (§5) In the evaluation of the anti-tumor effect of the present invention, BALB/c nude male mice (6-7 weeks old) were used as an animal model. Particularly, HT29 cells (5×10^6) and HepG2 cells (5×10^6) were subcutaneously inoculated into the left dorsal flank of BALB/c nude mice, respectively. After a volume of tumors reached ˜80-100 mm^3, mice were randomly divided into the 14 following five treatment groups (6 mice/group); DOX-TTPNs, DOX-FTNs, free DOX, empty TTPNs, and buffer. Mice were intravenously injected five times, once every 2 days, and volume of tumors was determined as 1/2(Length×Width^2). Apoptotic cell death in tumor tissues was analyzed using TUNEL staining (In situ Cell Death Detection kit; Roche), and cells were stained with DAPI (4′,6-diamidino-2-phenylindole), as previously described (Kih et al., Biomaterials 180: 67-77, 2018). Apoptotic cells were visualized under a Nikon Eclipse Ti microscope (Nikon) and quantified as the number of TUNEL-positive cells per total number of cells using ImageJ software. After 21 days from injecting tumor cells, tumor tissues were excised from the experimental mice, and cryo-sections (3.5 μm) were fixed with 10% neutral buffered formalin and paraffin-embedded tissue blocks.
(§6) In addition, to investigate whether tumor growth inhibition by TTPN is induced by apoptosis-inducing activity on tumor cells, tumor tissues from the treated mice were analyzed. On the 15th day after the first injection, mice were euthanized, and apoptosis of tumor tissues was analyzed using terminal deoxynucleotidyl transferase dUTP nick end labeling (TUNEL) staining.

[12] = within 21 days (Kih et al.); cited from earlier work
[13] = molecular target: T2, DR4-Fc chimeric protein (R&D systems 347-DR-100) (UniProt O00220 24-239); experiment: SPR, DR4-Fc captured on Protein A chip, 25° C., 1:1 Langmuir model
T2 construct: Bought (R&D systems 347-DR-100); Captured on a Protein A sensor chip; also called TRAIL R1; death receptor 4; Fc part of the bought chimera not given
Protocol: DR4 and DR5-fc chimeric proteins (R&D systems 347-DR-100, 631-T2-100) were immobilized on the surface of the Planar Protein A sensor chip (Reichert, 13206069) and the receptors were coated at a level of 300 to 500 resonance units. […] Each analyte was run at 50 μL/min using running and sample buffer (0.5 M Tris-HCl (pH 7.4), 150 mM NaCl, 0.005% Tween 20), and binding of the ligand to the receptor was performed and monitored in real time. For titration sensorgrams, a simple 1:1 Langmuir interaction model (A+B↔AB) was applied using the data analysis program Scrubber 2.0 (BioLogic Software, Australia, and KaleidaGraph Software, Australia) and CLAMP software.
The affinity KD was determined from the formula of KD=kd/ka.

[14] = In vitro stability (soluble protein in buffer over time); type: physicochemical
Protocol: The stability of TTPN, DOX-TTPN and mTRAIL was investigated by measuring changes of concentration in a suitable buffer solution. […] At predetermined times, aggregated proteins were collected at 13,000 rpm for 10 minutes, and the concentration of soluble DOX-TTPN and TTPN in the supernatant was measured using absorbance in UV280.

HepG2 tumor [15] = experiment: TUNEL analysis of HepG2 tumor tissue; type: in vivo, mouse; conditions: 15th day after first injection
Description: as §5, with “After 21 days from injecting tumor cells, tumor tissues were excised from the experimental mice, and cryo-sections (3.5 μm) were fixed with 10% neutral buffered formalin and paraffin-embedded tissue blocks.” left out
as §6

DR4 = molecular target: T3, DR4 (Homo sapiens, UniProt O00220); experiment: SPR binding to immobilized DR4-Fc; conditions: DR4-Fc immobilized, 25° C.
T3 construct: purchased R&D systems 347-DR-100
Protocol: as §3, §4

HepG2 cells [16] = experiment: Annexin V/PI flow cytometry of apoptosis, HepG2; type: cell-based, human; conditions: for surviving tumor cells (Annexin V/PI double negative): 24 hours
Protocol: FIG. 19 is a series of histograms representing flow cytometry analysis of TRAIL-mediated apoptosis of HepG2 cells as an analysis of in vitro TTPN-mediated apoptosis on TRAIL-sensitive-HepG2 cells. Cells were incubated for 24 hours in the presence of different concentrations of mTRAIL and TTPN and analyzed by Annexin V/PI double staining.
In addition, to investigate whether apoptosis induced by TTPN is induced by the pro-apoptosis pathway of tumor cells, fluorescence-activated cell sorting (FACS) using double staining of Annexin V/propidium iodide (PI) was performed. […] (FIG. 21).

HepG2 cells [17] = experiment: Cell viability, CCK-8 assay, HepG2; type: cell-based, human; conditions: HepG2
Protocol: After culturing for 24 hours, cell viability was measured using a cell counting kit (CCK)-8 assay (Dojindo Molecular Technologies, Gaithersburg, Md.). The plate was then read with an absorbance microplate reader (Spectramax 340, Molecular Devices Corporation) at a wavelength of 450 nm and 50% effective by regression analysis using SigmaPlot software (Systat Software, Inc., San Jose, Calif.). The concentration value was calculated.

Molecule: COc1cccc2c1C(=O)c1c(O)c3c(c(O)c1C2=O)C[C@@](O)(C(=O)CO)C[C@@H]3O[C@H]1C[C@H](N)[C@H](O)[C@H](C)O1 [free DOX, doxorubicin, reference compound]
- DR5 expression levels over time (DR5 [1]): substantial increase in DR5 expression at 4 hours
- increase in PARP relative to buffer-treated controls (defined as 1) (PARP): 811 fold
- dose at which side effects can be exhibited [2]: greater than 1 mg/kg
- decrease of tumor volumes (HT29 tumor [3]): no significant tumor-inhibition effect
- cell death compared with controls (HT29 cells [4]): 36%
- TUNEL-positive tumor cells (HT29 tumor [5]): 0.07%
- cleaved caspase-3 (and PARP) expression [6]: little change
- induction of early apoptosis (HT29 cells [7]): ineffective in inducing apoptosis
- decrease in XIAP levels compared with buffer treatment (XIAP): 34 fold

B1: monomeric TRAIL (mTRAIL) extracellular domain (ligand)
chain: MTSEETISTVQEKQQNISPLVRERGPQRVAAHITGTRGRSNTLSSPNSKNEKALGRKINSWESSRSGHSFLSNLHLRNGELVIHEKGFYYIYSQTYFRFQEEIKENTKNDKQMVQYIYKYTSYPDPILLMKSARNSCWSKDAEYGLYSIYQGGIFELKENDRIFVSVTNEHLIDMDHEASFFGAFLVG
notes: Expressed in E. coli from pET28a-mTRAIL and purified on Ni-NTA; a vector tag is not spelled out
- ka (DR5 [8]; 25° C.): 1.48 (±0.12) · 10^3 M^−1 · S^−1
- kd (DR5 [8]; 25° C.): 3.87 (±1.13) · 10^−5 s^−1
- Kd (DR5 [8]; KD=kd/ka): 25.4 nM
- IC50, cell viability of HepG2 cells (CCK-8, 24 hours) [9]: 405 nM
- IC50, cell viability of HepG2 cells (CCK-8, 24 hours) [10]: 405 nM
- inhibition of tumor volume (HepG2 tumor [11]): 25.98%
- fraction showing rapid aggregation [12]: ~50%
- Kd [13]: 247 nM
- koff [13]: 5.27e-05 s⁻¹
- kon [13]: 868 M⁻¹ s⁻¹
- stability in solution ([14]; 15 mg/mL in PBS buffer for 24 hours (FIG. 15)): precipitated and aggregated rapidly
- amount in the soluble form, of the initial concentration ([14]; within 2 days, 10 mg/mL (FIG. 16)): 57%
- TUNEL-positive tumor cells (HepG2 tumor [15]): 18.9%
- ka (DR4): 8.68 (±7.12) · 10^2 M^−1 · S^−1
- kd (DR4): 5.27 (±2.14) · 10^−5 s^−1
- surviving tumor cells (Annexin V/PI double negative) (HepG2 cells [16]; HepG2, 0.4 nM): 94.3%
- surviving tumor cells (Annexin V/PI double negative) (HepG2 cells [16]; HepG2, 100 nM): 82.9%
- concentration at which Annexin V-positive cells were detected (HepG2 cells [16]; HepG2, 24 hours (FIG. 20)): 25 nM
- IC50 relative to TTPN (HepG2 cells [17]): 30 times
